According to PMC6443348, “Protein denaturation at the air-water interface and how to prevent it” (eLife, 2019):

Target: T1, fatty acid synthase (FAS) from Saccharomyces cerevisiae, beta subunit (forms the beta-domes) (Saccharomyces cerevisiae, UniProt P07149 1-2051)
T1 construct: Fatty acid synthase subunit beta, Saccharomyces cerevisiae; also called yeast FAS
Test: cryo-EM structure; single-particle cryo-EM of purified FAS complex (0.2 mg/ml) on hydrophilized graphene grids; maps at 4.8 Å (C1) and 4.0 Å (D3 symmetry)
Conditions: both partners purified

T1 sequence (P07149 whole entry): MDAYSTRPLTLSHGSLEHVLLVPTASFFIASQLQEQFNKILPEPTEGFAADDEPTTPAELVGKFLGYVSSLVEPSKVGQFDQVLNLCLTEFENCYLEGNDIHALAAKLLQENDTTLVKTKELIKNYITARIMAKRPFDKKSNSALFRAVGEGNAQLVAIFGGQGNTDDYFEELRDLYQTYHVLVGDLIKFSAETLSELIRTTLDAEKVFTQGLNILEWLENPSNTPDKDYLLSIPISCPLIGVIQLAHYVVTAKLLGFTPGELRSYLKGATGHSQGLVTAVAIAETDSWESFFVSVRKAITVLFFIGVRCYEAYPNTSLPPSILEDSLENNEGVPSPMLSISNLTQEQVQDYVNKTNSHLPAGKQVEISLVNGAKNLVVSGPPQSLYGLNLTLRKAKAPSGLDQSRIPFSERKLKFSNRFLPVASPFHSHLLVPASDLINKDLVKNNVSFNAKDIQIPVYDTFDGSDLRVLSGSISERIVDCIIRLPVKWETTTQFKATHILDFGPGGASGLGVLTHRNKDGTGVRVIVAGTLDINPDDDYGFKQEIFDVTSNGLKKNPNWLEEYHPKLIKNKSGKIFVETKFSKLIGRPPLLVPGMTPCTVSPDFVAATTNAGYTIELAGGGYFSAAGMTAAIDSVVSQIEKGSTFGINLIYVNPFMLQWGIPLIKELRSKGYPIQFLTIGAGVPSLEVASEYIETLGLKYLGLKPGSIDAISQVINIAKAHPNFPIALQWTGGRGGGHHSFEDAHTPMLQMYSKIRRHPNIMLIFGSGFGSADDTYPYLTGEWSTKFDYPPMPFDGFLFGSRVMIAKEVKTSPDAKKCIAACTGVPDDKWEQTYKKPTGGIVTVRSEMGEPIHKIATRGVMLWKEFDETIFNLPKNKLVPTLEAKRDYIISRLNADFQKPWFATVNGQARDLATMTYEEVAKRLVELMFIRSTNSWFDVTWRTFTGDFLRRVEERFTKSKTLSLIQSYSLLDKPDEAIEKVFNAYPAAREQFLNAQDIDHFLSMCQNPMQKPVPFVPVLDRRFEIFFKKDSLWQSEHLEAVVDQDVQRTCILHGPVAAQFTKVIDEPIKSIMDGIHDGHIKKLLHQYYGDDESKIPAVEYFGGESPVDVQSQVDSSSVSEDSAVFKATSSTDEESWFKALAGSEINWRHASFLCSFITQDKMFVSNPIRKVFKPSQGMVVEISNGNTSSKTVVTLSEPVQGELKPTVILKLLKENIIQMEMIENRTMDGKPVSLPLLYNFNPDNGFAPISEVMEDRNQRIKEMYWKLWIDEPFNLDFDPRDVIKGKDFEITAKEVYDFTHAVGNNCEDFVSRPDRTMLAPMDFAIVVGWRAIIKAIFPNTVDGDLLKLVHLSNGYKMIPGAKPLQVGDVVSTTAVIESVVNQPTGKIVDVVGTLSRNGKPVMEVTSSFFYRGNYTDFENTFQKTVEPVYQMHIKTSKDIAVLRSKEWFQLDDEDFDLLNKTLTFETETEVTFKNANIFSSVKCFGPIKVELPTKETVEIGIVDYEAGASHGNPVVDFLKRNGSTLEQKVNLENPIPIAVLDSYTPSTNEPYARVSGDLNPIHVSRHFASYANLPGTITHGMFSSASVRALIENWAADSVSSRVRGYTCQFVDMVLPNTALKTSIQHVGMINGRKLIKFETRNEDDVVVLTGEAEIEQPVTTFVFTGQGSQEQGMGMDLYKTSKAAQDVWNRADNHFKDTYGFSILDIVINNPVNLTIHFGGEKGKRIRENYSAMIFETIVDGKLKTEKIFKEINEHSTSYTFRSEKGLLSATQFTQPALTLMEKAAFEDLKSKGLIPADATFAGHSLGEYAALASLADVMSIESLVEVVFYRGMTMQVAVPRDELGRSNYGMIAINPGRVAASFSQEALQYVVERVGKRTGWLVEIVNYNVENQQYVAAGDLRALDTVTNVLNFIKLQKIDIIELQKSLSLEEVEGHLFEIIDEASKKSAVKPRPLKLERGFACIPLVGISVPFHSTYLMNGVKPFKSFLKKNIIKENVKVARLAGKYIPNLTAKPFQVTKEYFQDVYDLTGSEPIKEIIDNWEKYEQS

B1: fatty acid synthase (FAS) from Saccharomyces cerevisiae, alpha subunit (forms the alpha wheel) (natural protein, UniProt P19097 1-1887, looked up)
chain: MKPEVEQELAHILLTELLAYQFASPVRWIETQDVFLKDFNTERVVEIGPSPTLAGMAQRTLKNKYESYDAALSLHREILCYSKDAKEIYYTPDPSELAAKEEPAKEEAPAPTPAASAPAPAAAAPAPVAAAAPAAAAAEIADEPVKASLLLHVLVAHKLKKSLDSIPMSKTIKDLVGGKSTVQNEILGDLGKEFGTTPEKPEETPLEELAETFQDTFSGALGKQSSSLLSRLISSKMPGGFTITVARKYLQTRWGLPSGRQDGVLLVALSNEPAARLGSEADAKAFLDSMAQKYASIVGVDLSSAASASGAAGAGAAAGAAMIDAGALEEITKDHKVLARQQLQVLARYLKMDLDNGERKFLKEKDTVAELQAQLDYLNAELGEFFVNGVATSFSRKKARTFDSSWNWAKQSLLSLYFEIIHGVLKNVDREVVSEAINIMNRSNDALIKFMEYHISNTDETKGENYQLVKTLGEQLIENCKQVLDVDPVYKDVAKPTGPKTAIDKNGNITYSEEPREKVRKLSQYVQEMALGGPITKESQPTIEEDLTRVYKAISAQADKQDISSSTRVEFEKLYSDLMKFLESSKEIDPSQTTQLAGMDVEDALDKDSTKEVASLPNKSTISKTVSSTIPRETIPFLHLRKKTPAGDWKYDRQLSSLFLDGLEKAAFNGVTFKDKYVLITGAGKGSIGAEVLQGLLQGGAKVVVTTSRFSKQVTDYYQSIYAKYGAKGSTLIVVPFNQGSKQDVEALIEFIYDTEKNGGLGWDLDAIIPFAAIPEQGIELEHIDSKSEFAHRIMLTNILRMMGCVKKQKSARGIETRPAQVILPMSPNHGTFGGDGMYSESKLSLETLFNRWHSESWANQLTVCGAIIGWTRGTGLMSANNIIAEGIEKMGVRTFSQKEMAFNLLGLLTPEVVELCQKSPVMADLNGGLQFVPELKEFTAKLRKELVETSEVRKAVSIETALEHKVVNGNSADAAYAQVEIQPRANIQLDFPELKPYKQVKQIAPAELEGLLDLERVIVVTGFAEVGPWGSARTRWEMEAFGEFSLEGCVEMAWIMGFISYHNGNLKGRPYTGWVDSKTKEPVDDKDVKAKYETSILEHSGIRLIEPELFNGYNPEKKEMIQEVIVEEDLEPFEASKETAEQFKHQHGDKVDIFEIPETGEYSVKLLKGATLYIPKALRFDRLVAGQIPTGWNAKTYGISDDIISQVDPITLFVLVSVVEAFIASGITDPYEMYKYVHVSEVGNCSGSGMGGVSALRGMFKDRFKDEPVQNDILQESFINTMSAWVNMLLISSSGPIKTPVGACATSVESVDIGVETILSGKARICIVGGYDDFQEEGSFEFGNMKATSNTLEEFEHGRTPAEMSRPATTTRNGFMEAQGAGIQIIMQADLALKMGVPIYGIVAMAATATDKIGRSVPAPGKGILTTAREHHSSVKYASPNLNMKYRKRQLVTREAQIKDWVENELEALKLEAEEIPSEDQNEFLLERTREIHNEAESQLRAAQQQWGNDFYKRDPRIAPLRGALATYGLTIDDLGVASFHGTSTKANDKNESATINEMMKHLGRSEGNPVIGVFQKFLTGHPKGAAGAWMMNGALQILNSGIIPGNRNADNVDKILEQFEYVLYPSKTLKTDGVRAVSITSFGFGQKGGQAIVVHPDYLYGAITEDRYNEYVAKVSAREKSAYKFFHNGMIYNKLFVSKEHAPYTDELEEDVYLDPLARVSKDKKSGSLTFNSKNIQSKDSYINANTIETAKMIENMTKEKVSNGGVGVDVELITSINVENDTFIERNFTPQEIEYCSAQPSVQSSFAGTWSAKEAVFKSLGVKSLGGGAALKDIEIVRVNKNAPAVELHGNAKKAAEEAGVTDVKVSISHDDLQAVAVAVSTKK
notes: Fatty acid synthase subunit alpha, Saccharomyces cerevisiae; also called yeast FAS
Question: Does B1 bind?
Answer: Result: binds
